Source: patent publication US20120328625A1 (AstraZeneca / MedImmune, published 2012)
Changes are numbered by the printed parent chain.

Legend:
[1] = target: T1, Shh-N in conditioned medium (human, UniProt Q15465 24-197, N-terminal palmitoyl modification; lacks the C-terminal cholesterol moiety); assay: cell-based or functional assay
[2] = target: T2, Recombinant Human/Mouse Indian Hedgehog C28II, amino terminal peptide (R&D Systems cat#1705-HH/CF) (human/mouse (100% sequence identity in …, UniProt Q14623 28-202)); assay: SPR (Biacore), IgG1 captured on protein G', Ihh as analyte
T2 construct: domain: amino terminal peptide; bought; also called Human/mouse Ihh; Ihh-N C28II
Text: (§1) Protein G was coupled to the CM5 chip surface using standard amine linkage chemistry. Protein G′ was cleared of Tris using a Dulbecco's PBS equilibrated PD-10 column. […] Approximately 500 RUs of protein G were covalently bound to the surface of flow chamber 2 (Fc2). […] Immobilization levels were reproducible between cycles.

[3] = target: T1, Shh-N in conditioned medium; assay: ELISA, apparent KD, purified antibody on immobilized Shh-CM
Experimental: (§2) The binding of purified antibodies to recombinant human Shh was determined using an ELISA-based method. The N-terminal signaling domain of Shh, Shh-N, was presented in two forms: as a purified protein isolated from bacteria lacking lipid modifications and as a constituent of conditioned medium in a form that contains the N-terminal palmitoyl modification but lacks the C-terminal cholesterol moiety.
(§3) The plates were sealed and placed on a shaker overnight at 5° C. The next day, the plates were washed 4 times with PBS with 0.05% Tween 20 (PBS-T). […] The plates were washed four times with PBS-T. Titrations of purified antibody (half log serial dilutions over at least six logs with a starting concentration of 30 μg/mL) were made in 100 μl PBS-T and added into wells and incubated with shaking overnight at 4° C. Antibody controls included human IgG2 and IgG4 (Sigma-Aldrich, Cat, #I5404 and #I4639, respectively). […] Following washing with PBS-T, the chemiluminescent Peroxidase substrate (Sigma cat# CPS-2-60) was added at room temperature and incubated for ten minutes with the plate covered by foil. Each well was read for 100 msec in the Spectromax 5e to determine RLU.

[4] = target: T3, Recombinant Human Sonic Hedgehog C24II amino terminal peptide (R&D Systems cat#1845-SH) (human, UniProt Q15465 24-197); assay: ELISA, apparent KD, purified antibody on immobilized Shh C24II
T3 construct: domain: amino terminal peptide; bought; also called Shh-C24II; C24II peptide
Experimental: as §2, §3

[5] = target: T3, Recombinant Human Sonic Hedgehog C24II …; assay: SPR (Biacore), IgG1 captured on protein G', human Shh as analyte, 1:1 Langmuir
Text: as §1

[6] = target: T4, full length human Shh expressed on the cell surface (human, UniProt Q15465 24-462); assay: cell-based or functional assay
[7] = target: T1, Shh-N in conditioned medium; assay: cell-based or functional assay; remark: listed apart in the source
[8] = target: T4, full length human Shh expressed on the …; assay: cell-based or functional assay; remark: listed apart in the source
[9] = target: T1, Shh-N in conditioned medium; assay: cell-based or functional assay; remark: listed apart in the source
[10] = target: T1, Shh-N in conditioned medium; assay: cell-based or functional assay; remark: listed apart in the source
[11] = target: T5, Recombinant Human Desert Hedgehog C23II, amino terminal peptide (R&D Systems cat#4777-HH) (human, UniProt O43323 23-198); assay: ELISA, immobilized human Dhh, antibody 30 µg/ml to 1 pg/ml
T5 construct: domain: amino terminal peptide; bought; also called Human Dhh
Experimental: The plates were washed four times with PBS-T. Titrations of purified antibody (half log serial dilutions over at least six logs with a starting concentration of 30 μg/mL) were made in 100 μl PBS-T and added into wells and incubated with shaking overnight at 4° C. Antibody controls included human IgG2 and IgG4 (Sigma-Aldrich, Cat, #I5404 and #I4639, respectively). […] Following washing with PBS-T, the chemiluminescent Peroxidase substrate (Sigma cat# CPS-2-60) was added at room temperature and incubated for ten minutes with the plate covered by foil. Each well was read for 100 msec in the Spectromax 5e to determine RLU.
After washing with PBS-T and blocking with 1% BSA, antibody titrations spanning concentrations of 30 μg/ml to 1 pg/ml prepared by half log serial dilution in PBS-T were added to wells and incubated with shaking overnight at 4° C.

[12] = target: T2, Recombinant Human/Mouse Indian Hedgehog …; assay: ELISA, apparent KD, purified antibody on immobilized human/mouse Ihh
Experimental: as §3

[13] = target: T4, full length human Shh expressed on the …; assay: FMAT, hybridoma supernatant on 293T cells transiently expressing human Shh
Experimental: Cells were maintained at 1×10⁶ cells/ml overnight at 37° C., 5% CO₂. […] Supernatants were added to each well (10 μl/well) and incubated 1.5 hrs at RT. […] Plates were read on the FMAT 8100 HTS system from Applied Biosystems. Total signal (FL1×count) is defined as the number of positive cells in a well (count) multiplied by the average fluorescence intensity of the positive cells (FL1).

[14] = target: T4, full length human Shh expressed on the …; assay: flow cytometry, exhaust hybridoma supernatant 1:10, 293T cells transiently expressing human Shh
Experimental: Finally, binding of antibody in exhaust hybridoma supernatants to native Shh was assessed using flow cytometry. […] Transfected or parental cells were seeded into the plates with V-bottom wells (50,000 cells/well). Exhaust supernatants (50 μl of a 1:10 dilution) were added to each well and incubated at 4° C. for 1 hr. […] It was added to a concentration of 2 μg/ml in a volume of 50 μl. Cells were washed and 50 μl of a 2 μg/ml solution of secondary antibody (Cy5-labeled goat-anti-human IgG or Cy5-labeled goat-anti-rabbit IgG) were added to each well. 7AAD was added to a concentration of 5 μg/ml and the mixture was incubated for 30 min at RT. The mean fluorescence for each sample was then determined using flow cytometry.

[15] = target: T4, full length human Shh expressed on the …; assay: flow cytometry, hybridoma-derived hIgG4 on HEK 293 cells stably expressing full length Shh; 95% CI ±40 pM
Experimental: The binding affinity of the purified antibodies for full length Shh ectopically expressed on the surface of a pool of stable HEK 293 cells was determined using flow cytometry. […] Antibody was mixed with cells at approximately 74,000 cells/well in a final volume of 300 μl in a polypropylene microtiter plate. The plate was incubated with shaking for 5 hours at 4° C. […] The plates were shaken for 20 minutes at 4° C. The mean fluorescence of 10,000 events was recorded for each sample using FACS Canto II HTS flow cytometry instrumentation. A plot of the mean fluorescence as a function of antibody concentration was fit nonlinearly with Scientist 3.0 software to estimate KD.

[16] = target: T2, Recombinant Human/Mouse Indian Hedgehog …; assay: cell-based or functional assay
[17] = target: T2, Recombinant Human/Mouse Indian Hedgehog …; assay: SPR (Biacore), IgG1 captured on protein G', human/mouse Ihh as analyte, 1:1 Langmuir
Text: as §1

B1: 3H8OP (antibody, V domains shown)
VH: QVQLVESGGGVVQPGRSLRLSCAASGFTFSTYGMHWVRQAPGKGLEWVAVIWYDGSNKYYADSVKGRFTISRDNSKNTLYLQMNSLRAEDTAVYYCARDLYYYGSGSPFDYWGQGTLVTVSS
VL: EIVMTQSPATLSVSPGERATLSCRASQSVSSNLAWYQQKPGQAPRLLIYGVSIRATGIPARFSGSGSGTEFTLTISSLQSEDFAVYYCQQYNNWPRPGFGGGTKVEIK
IC50, inhibition of osteoblast differentiation (alkaline phosphatase) of C3H10T1/2 cells [1]: 5.6 nM
binding result [2]: no binding
Kd [3]: 0.685 nM
Kd [4]: 0.082 nM
Kd [5]: 0.0261 nM

B2: 6D7 (antibody, V domains shown)
VH: QVQLQESGPGLVKPSQTLSLTCTVSGGSINSGGFYWSWIRQHPGKNLEWIGSIYYSGNTYYNPSLKSRVTISVDTSKNQFSLKLTSVTAADTAVYYCARGNDSGDYDWYFDLWGRGTLVTVSS
VL: SYELTQPPSVSVSPGQTASITCSGEKLGYKYVCWYQQKPGQSPVLVIFHDNKRPSGIPERFSGSNSGNTATLTISGAQAMDEADYYCQAGDSSAVFGGGTKLTVL
notes: fully human XenoMouse hybridoma antibody; also called MAb 6D7
% Inh of Gli1 reporter, Co-Culture N = 1 [6]: 46%
% Inh of Gli1 reporter, Co-Culture N = 2 [6]: 22%
% Inh of Gli1 reporter, CM N = 1 [7]: -8%
% Inh of Gli1 reporter, CM N = 3 [7]: -1%
% Inhibition of Gli1 reporter, Co-Culture N = 1, 20 µg/ml [8]: 80%
% Inhibition of Gli1 reporter, Co-Culture N = 2, 20 µg/ml [8]: 68%
% Inhibition of Gli1 reporter, Conditioned Media N = 1, 20 µg/ml [9]: 89%
% Inhibition of Gli1 reporter, Conditioned Media N = 2, 20 µg/ml [9]: 111%
IC50, inhibition of osteoblast differentiation (alkaline phosphatase) of C3H10T1/2 cells [1]: 5.3 nM
IC50, inhibition of endogenous mouse Gli1 mRNA (qRT-PCR) in C3H10T1/2 cells [10]: 11.7 nM
IC50, inhibition of endogenous mouse Ptc1 mRNA (qRT-PCR) in C3H10T1/2 cells [10]: 8.2 nM
binding result [11]: no binding
Kd [3]: 0.06 nM
Kd [4]: 0.047 nM
Kd [12]: 0.052 nM
FL1 X COUNT [13]: 661000
X Geo Mean (Transients) [14]: 313
Kd [15]: 0.107 nM

B3: 6D7OP (antibody, IgG1, V domains shown)
VH: B2 VH with N46G, T85S, N101Q
VL: B2 VL with C33S, F48Y, A77T
IC50, inhibition of osteoblast differentiation of C3H10T1/2 cells induced by Ihh-N C28II (2 µg/ml) [16]: 16.3 nM
Kd [5]: 0.003 nM
Kd [17]: 0.0342 nM
